In patent US20230363418A1, “COMPOSITION FOR PREVENTING OR TREATING NEUROPSYCHOLOGIC DISEASE, COMPRISING MANF” (CEFO CO., LTD., priority 2020, published 2023):

Legend:
[1] = tested on: proliferating neural progenitor cells; assay: Immunoblotting of Sox2 and DCX in proliferating neural progenitor cells; format: cell-based, rat; conditions: MANF 20 ng/ml, proliferation condition
Description: Specifically, hippocampal-derived neural stem cells were isolated from the brain of E16 rat embryos. Hippocampal ridges were minced from the embryonic forebrains of E16 rats using sterile fine tweezers under a dissecting microscope. The tissues were collected, mechanically separated using a pipette in Ca^2+/Mg^2+-freeHBSS (Invitrogen) solution, and planted at 19,000 cells/cm^2 in 35 mm culture dishes precoated with 15 µg/ml poly-L-ornithine and 1 µg/ml fibronectin (Sigma). The cells were cultured under the condition of 5% CO2 for 3 days using a serum-free N2 medium (medium for proliferation) supplemented with 10 ng/mL basic fibroblast growth factor(bFGF, Invitrogen). Thereafter, the cells were removed using 0.05% trypsin/EDTA (ethylene-diamine-tetraacetic acid), and neural progenitor cells were planted on a 12 mm glass coverglass (Belco) for immunostaining and on a 100 mm dish for immunoblotting and cultured in N2 medium for proliferation containing bFGF for 1 day. Thereafter, in the proliferation condition, the medium continuously containing bFGF was treated with MANF at the indicated concentration and cultured for 2-3 days; and in the differentiation condition, MANF was added to the medium for differentiation not containing bFGF, which was cultured for 3-7 days. In the control group (vehicle), physiological saline was added in the same volume instead of MANF.

[2] = tested on: IBO-administered memory impairment and autism model; assay: Y-shaped maze experiment; format: in vivo, rat; conditions: MANF-AAV-hMSC transplanted into the hippocampus of IBO rats
Description: Memory impairment and autism models were prepared by administering IBO to the entorhinal cortex of the rats, wherein the IBO destroys granule cells of the dentate gyrus (DG) and pyramidal cells of the hippocampus, which receive nerve signals input from the entorhinal cortex. Specifically, the rats were anesthetized with equitensin (10% ethanol containing 350 mM pentobarbital sodium, 250 mM chloral hydrate, 85 mM MgSO and 40% propylene glycol). The incisor bar of a stereotaxic device (Stoelting Co., U.S.A.) was placed 3.4 mm below the interaural line, and the injection needle angle was fixed at […] right from the center of the sagittal plane. 1.5 ul of IBO (1 mg/ml) was injected into the entorhinal cortex of the rat using the stereotaxic device. The IBO was injected into three locations of first, AP: -8.4, ML: -4.8, DV: -4.6; Second, AP; -8.4, ML: -4.8, DV: […]; Third, AP: -8.8, ML: - 3.65, DV: -3.4 (FIG. 7).
After 2-3 IBO injections, each group was randomly classified into an IBO-administrated group (negative control group), and a GFP-AAV-hMSC-administrated group (GFP-AAV) and a MANF-AAV-hMSC-administrated group […] as a control group. A rest period of one week was provided. […]

[3] = tested on: hippocampus of IBO-administered memory impairment and autism model; assay: Immunohistochemical analysis of brain tissue (BrdU, SOX2, DCX, NeuN, GAD67, CNPase); format: in vivo, rat; conditions: brain tissue after behavioral experiment
Description: The brain tissue stored in the same method as the immunostaining of Example 9-1 was washed twice with PBS, permeated in 0.5% Triton X-100 for 20 minutes, and cultured in 2N HCl at 37° C. for 30 minutes. Thereafter, blocking was performed in 15% standard serum, 3% bovine serum albumin (bio-WORLD, Dublin, OH, USA) and 0.1% Triton X-100 in a free-floating state for 2 hours. The tissue was doubly stained at 4° C. for 16 hours using BrdU (abcam, 1:700) antibody, SOX2 (R&D system, MAB2018, 1:2000), DCX (Santacruz, sc8066, 1:1000), NeuN (Millipore, MAB377B, 1:700), CNPase (Abcam, ab6319, 1:700), vGluT1 (Millipore, MAB5502, 1:700), GAD67 (Millipore, MAB5406, 1:2000) as primary antibodies. As secondary antibodies, mo-Alexa 488 (Invitrogen, A21202, 1:700), mo-Cy3 (Jackson lab, 715-165-151, 1:500), rb-Alexa 488 (Jackson lab, 711-546-152, 1:700), rat-Alexa 488 (Abcam, ab6326, 1:700), etc. were used. Immunostained tissues were scanned with a confocal microscope (LSM510, LSM800 Carl Zeiss, Oberkochen, Germany).
The number of differentiation markers in the hippocampus of each experimental animal was shown by counting the number of DAPI-labeled cells in the double and triple photographed slides and counting the number of each cells labeled by fluorescently labeling each differentiation marker, NeuN, CNPase, GAD and vGluT1. Here was counted the number of cells labeled with the secondary antibody that is precisely matched in shape and location and has the shape of a cell.

B1: MANF: one of 16 or more growth factors secreted into nerve stem cells by cerebrovascular cells; amino acid sequence of SEQ ID NO: 1 (protein)
chain: MRRMWATQGLAVALALSVLPGSRALRPGDCEVCISYLGRFYQDLKDRDVTFSPATIENELIKFCREARGKENRLCYYIGATDDAATKIINEVSKPLAHHIPVEKICEKLKKKDSQICELKYDKQIDLSTVDLKKLRVKELKKILDDWGETCKGCAEKSDYIRKINELMPKYAPKAASARTDL
modifications: MANF
In the case of B1, the DCX immunoblot [1] is reported as “significantly increased”, the Sox2 immunoblot [1] is reported as “significantly increased” and the “memory ability in Y-shaped maze test” value [2] is reported as “memory improvement”. The “differentiation of newly proliferated (BrdU stained) neural progenitor cells into GABAergic nerve cells (GAD)” value [3] was “increased”, the “differentiation of newly proliferated (BrdU stained) neural progenitor cells into mature nerve cells (NeuN)” value [3] was “increased” and the “differentiation of newly proliferated (BrdU stained) neural progenitor cells into oligodendrocytes (CNPase)” value [3] was “increased”. The “migration (DCX) of neural stem cells (Sox2+)” value ([3]; MANF-AAV-hMSC transplanted) was “promoted” and the “proliferation (BrdU+, Ki67) of neural stem cells (Sox2+)” value ([3]; MANF-AAV-hMSC transplanted) was “promoted”.
